Laboratory results from patent publication US20220017622A1 (Pfizer, published 2022).

Columns and labels:
[1] = biological target: T1, human B7-H4 extracellular domain (human, UniProt Q7Z7D3 29-258); assay: SPR 37 C; bispecific (IgG2 scaffold) on anti-hFc chip, ECD analyte
T1 construct: Soluble ECD used as SPR analyte; also called huB7-H4 ECD; huB7-H4
T1 sequence: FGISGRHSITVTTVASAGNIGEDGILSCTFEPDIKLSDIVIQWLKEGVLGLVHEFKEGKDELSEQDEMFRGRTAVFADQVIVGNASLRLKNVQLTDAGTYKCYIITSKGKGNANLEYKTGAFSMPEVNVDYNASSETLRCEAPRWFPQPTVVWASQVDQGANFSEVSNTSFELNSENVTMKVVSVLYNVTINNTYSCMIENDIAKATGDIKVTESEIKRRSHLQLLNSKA

[2] = biological target: T2, human CD3 (delta/epsilon heterodimer) (human, UniProt P07766 23-126; P04234 22-105); assay: SPR 37 C; CD3 delta/epsilon on anti-His chip, bispecific (IgG2 scaffold) analyte
T2 construct: captured on an anti-His chip, so it carries a His tag; also called huCD3
T2 sequence (P07766 23-126, stated change not applied, chain 1 of 2): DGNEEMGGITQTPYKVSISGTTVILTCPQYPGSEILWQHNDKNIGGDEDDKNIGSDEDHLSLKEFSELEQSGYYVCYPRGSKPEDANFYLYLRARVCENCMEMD
T2 sequence (P04234 22-105, stated change not applied, chain 2 of 2): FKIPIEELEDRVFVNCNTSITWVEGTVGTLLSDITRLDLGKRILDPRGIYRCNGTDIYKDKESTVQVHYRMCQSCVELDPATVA

[3] = biological target: T3, cyno CD3 (delta/epsilon heterodimer) (cyno, UniProt Q95LI5 22-117; Q95LI8 22-105); assay: SPR 25 C; CD3 delta/epsilon on anti-His chip, bispecific analyte
T3 construct: also called cyCD3
T3 sequence (Q95LI5 22-117, stated change not applied, chain 1 of 2): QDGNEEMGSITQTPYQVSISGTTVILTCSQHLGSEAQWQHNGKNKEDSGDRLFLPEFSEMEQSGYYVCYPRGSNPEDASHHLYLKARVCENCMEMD
T3 sequence (Q95LI8 22-105, stated change not applied, chain 2 of 2): as the sequence (P04234 22-105, stated change not applied, chain 2 of 2) above, with I5V, N15K, I20V, S32T, D33N, I34N, T64A, S74N, V83L counted along it

[4] = biological target: T2, human CD3 (delta/epsilon heterodimer); assay: as above
[5] = biological target: T1, human B7-H4 extracellular domain; assay: SPR 37 C; bispecific on anti-hFc chip, ECD analyte
[6] = biological target: T4, cyno B7-H4 extracellular domain (cyno, UniProt Q7Z7D3 29-258 (human entry)); assay: SPR 37 C; bispecific on anti-hFc chip, ECD analyte
T4 construct: Soluble ECD used as SPR analyte; also called cyB7-H4 ECD; cyB7-H4
T4 sequence: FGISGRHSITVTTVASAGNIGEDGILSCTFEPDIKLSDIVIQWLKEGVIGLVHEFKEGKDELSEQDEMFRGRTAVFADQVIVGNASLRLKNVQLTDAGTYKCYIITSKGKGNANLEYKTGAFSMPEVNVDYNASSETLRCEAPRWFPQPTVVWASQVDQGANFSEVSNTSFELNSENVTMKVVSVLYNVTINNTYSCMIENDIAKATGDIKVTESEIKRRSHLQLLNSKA

[7] = biological target: T2, human CD3 (delta/epsilon heterodimer); assay: SPR 37 C; CD3 delta/epsilon on anti-His chip, bispecific analyte; CD3 variant 2B5v6
[8] = biological target: T1, human B7-H4 extracellular domain; assay: SPR 37 C; bispecific on anti-hFc chip, ECD analyte; remark: listed apart in the source
[9] = biological target: T4, cyno B7-H4 extracellular domain; assay: SPR 37 C; bispecific on anti-hFc chip, ECD analyte; remark: listed apart in the source
[10] = biological target: T5, rat B7-H4 extracellular domain (rat, UniProt Q501W4 29-257); assay: SPR 37 C; bispecific on anti-hFc chip, ECD analyte
T5 construct: Soluble ECD used as SPR analyte; also called ratB7-H4 ECD
T5 sequence: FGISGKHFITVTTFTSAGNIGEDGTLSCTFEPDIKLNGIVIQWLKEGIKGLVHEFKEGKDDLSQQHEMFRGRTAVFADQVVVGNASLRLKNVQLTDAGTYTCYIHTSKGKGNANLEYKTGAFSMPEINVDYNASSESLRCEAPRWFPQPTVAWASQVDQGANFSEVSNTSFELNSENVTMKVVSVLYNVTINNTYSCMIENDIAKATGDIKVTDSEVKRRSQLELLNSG

[11] = biological target: T6, mouse B7-H4 extracellular domain (mouse, UniProt Q7TSP5 29-258); assay: SPR 37 C; bispecific on anti-hFc chip, ECD analyte
T6 construct: Soluble ECD used as SPR analyte; also called muB7-H4 ECD; muB7-H4
T6 sequence: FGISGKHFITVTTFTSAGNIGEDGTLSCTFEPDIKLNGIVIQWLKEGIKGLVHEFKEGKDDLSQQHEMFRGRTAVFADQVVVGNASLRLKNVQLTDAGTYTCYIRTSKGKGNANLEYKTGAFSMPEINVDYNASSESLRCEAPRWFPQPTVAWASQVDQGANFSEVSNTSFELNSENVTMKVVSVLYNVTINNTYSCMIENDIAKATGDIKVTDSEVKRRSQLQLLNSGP

[12] = biological target: T1, human B7-H4 extracellular domain; assay: SPR 25 C; bispecific on anti-hFc chip, ECD analyte
[13] = biological target: T4, cyno B7-H4 extracellular domain; assay: SPR 25 C; bispecific on anti-hFc chip, ECD analyte
[14] = biological target: T6, mouse B7-H4 extracellular domain; assay: SPR 25 C; bispecific on anti-hFc chip, ECD analyte
[15] = biological target: T7, human B7-H4 on cells (human, UniProt Q7Z7D3 25-282); assay: cell-based or functional assay
T7 sequence (looked up): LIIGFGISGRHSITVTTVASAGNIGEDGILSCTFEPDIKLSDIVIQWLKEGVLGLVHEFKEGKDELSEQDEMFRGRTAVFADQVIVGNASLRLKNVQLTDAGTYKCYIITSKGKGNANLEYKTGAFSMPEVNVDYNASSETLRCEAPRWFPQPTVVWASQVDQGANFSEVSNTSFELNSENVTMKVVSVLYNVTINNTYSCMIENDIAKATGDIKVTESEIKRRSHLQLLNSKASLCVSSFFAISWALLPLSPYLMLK

[16] = biological target: T3, cyno CD3 (delta/epsilon heterodimer); assay: SPR 37 C; CD3 delta/epsilon on anti-His chip, bispecific analyte
[17] = biological target: T2, human CD3 (delta/epsilon heterodimer); assay: as above

B1: B7-H4xCD3 bispecific antibody 0074 (bispecific antibody, IgG2)
heavy 1: QVQLQQWGAGLLKPSETLSLTCAVYGGSFSGYYWNWIRQPPGKGLEWIGEINHSGSTKYNPSLKSRVTISGDTSKNQFSLKLNSVTAADTAVYYCVRGLYNWNVDSWGQGTLVTVSSASTKGPSVFPLAPCSRSTSESTAALGCLVKDYFPEPVTVSWNSGALTSGVHTFPAVLQSSGLYSLSSVVTVPSSNFGTQTYTCNVDHKPSNTKVDKTVERKCEVECPECPAPPVAGPSVFLFPPKPKDTLMISRTPEVTCVVVAVSHEDPEVQFNWYVDGVEVHNAKTKPREEQFNSTFRVVSVLTVVHQDWLNGKEYKCKVSNKGLPSSIEKTISKTKGQPREPQVYTLPPSREEMTKNQVSLTCEVKGFYPSDIAVEWESNGQPENNYKTTPPMLDSDGSFFLYSKLTVDKSRWQQGNVFSCSVMHEALHNHYTQKSLSLSPGK
light 1: DIQMTQSPSSLSASVGDRVTITCRASQGIRNDLGWYQQKPGKAPKRLIYVASSLQSGVPSRFSGSGSGTEFTLTISSLQPEDFATYYCLQHNSYPYTFGQGTKLEIKRTVAAPSVFIFPPSDEQLKSGTASVVCLLNNFYPREAKVQWKVDNALQSGNSQESVTEQDSKDSTYSLSSTLTLSKADYEKHKVYACEVTHQGLSSPVTKSFNRGEC
heavy 2: EVQLVESGGGLVQPGGSLRLSCAASGFTFSDYYMTWVRQAPGKGLEWVAFIRNQARGYTSDHNPSVKGRFTISRDNAKNSLYLQMNSLRAEDTAVYYCARDRPSYYVLDYWGQGTTVTVSSASTKGPSVFPLAPCSRSTSESTAALGCLVKDYFPEPVTVSWNSGALTSGVHTFPAVLQSSGLYSLSSVVTVPSSNFGTQTYTCNVDHKPSNTKVDKTVERKCRVRCPRCPAPPVAGPSVFLFPPKPKDTLMISRTPEVTCVVVAVSHEDPEVQFNWYVDGVEVHNAKTKPREEQFNSTFRVVSVLTVVHQDWLNGKEYKCKVSNKGLPSSIEKTISKTKGQPREPQVYTLPPSREEMTKNQVSLTCLVKGFYPSDIAVEWESNGQPENNYKTTPPMLDSDGSFFLYSRLTVDKSRWQQGNVFSCSVMHEALHNHYTQKSLSLSPGK
light 2: DIQMTQSPSSLSASVGDRVTITCTSSQSLFNVRSQKNYLAWYQQKPGKAPKLLIYWASTRESGVPSRFSGSGSGTDFTLTISSLQPEDFATYYCKQSYDLFTFGGGTKVEIKRTVAAPSVFIFPPSDEQLKSGTASVVCLLNNFYPREAKVQWKVDNALQSGNSQESVTEQDSKDSTYSLSSTLTLSKADYEKHKVYACEVTHQGLSSPVTKSFNRGEC
notes: Chains 1-2: B7-H4 arm; chains 3-4: CD3 arm; IgG2 EEE/RRR; also called anti-B7-H4 clone 28D10; CD3 variant 2B5v6
Kd [1]: 18.2 nM | koff [1]: 0.00582 s⁻¹ | kon [1]: 319000 M⁻¹ s⁻¹ | Kd [2]: 56.9 nM | koff [2]: 0.0336 s⁻¹ | kon [2]: 592000 M⁻¹ s⁻¹ | Kd [3]: 8.33 nM | koff [3]: 0.00534 s⁻¹ | kon [3]: 642000 M⁻¹ s⁻¹ | Kd [4]: 7.38 nM | koff [4]: 0.00559 s⁻¹ | kon [4]: 758000 M⁻¹ s⁻¹ | Kd [5]: 21.9 nM | koff [5]: 0.00602 s⁻¹ | kon [5]: 275000 M⁻¹ s⁻¹ | Kd [6]: 30.9 nM | koff [6]: 0.00581 s⁻¹ | kon [6]: 188000 M⁻¹ s⁻¹ | Kd [7]: 56.9 nM | koff [7]: 0.0336 s⁻¹ | kon [7]: 592000 M⁻¹ s⁻¹ | Kd [8]: 8.86 nM | koff [8]: 0.00509 s⁻¹ | kon [8]: 575000 M⁻¹ s⁻¹ | Kd [9]: 8.81 nM | koff [9]: 0.00487 s⁻¹ | kon [9]: 553000 M⁻¹ s⁻¹ | Kd [10]: 1120 nM | koff [10]: 0.131 s⁻¹ | kon [10]: 117000 M⁻¹ s⁻¹ | Kd [11]: 776 nM | koff [11]: 0.134 s⁻¹ | kon [11]: 173000 M⁻¹ s⁻¹ | Kd [12]: 6.83 nM | koff [12]: 0.0012 s⁻¹ | kon [12]: 176000 M⁻¹ s⁻¹ | Kd [13]: 9.29 nM | koff [13]: 0.0012 s⁻¹ | kon [13]: 129000 M⁻¹ s⁻¹ | Kd [14]: 299 nM | koff [14]: 0.0299 s⁻¹ | kon [14]: 100000 M⁻¹ s⁻¹ | T cell mediated tumor cell killing EC50, HCC1954-Luc [15]: 73 nM | T cell mediated tumor cell killing, MDA-MB-468 [15]: 42 | T cell mediated tumor cell killing, OVCAR3-Luc [15]: 31 | T cell mediated tumor cell killing, T47D [15]: 224 | Kd [16]: 47.1 nM | koff [16]: 0.0239 s⁻¹ | kon [16]: 507000 M⁻¹ s⁻¹ | Kd [17]: 41.9 nM | koff [17]: 0.0234 s⁻¹ | kon [17]: 558000 M⁻¹ s⁻¹
